Holding throughout (conditions): label: none (ethidium bromide stain)
Data set [1] deals with T1, HTLV-1 Rex peptide (HTLV-1, UniProt P0C206).
T1 chain: MPKTRRRPRRSQRKRP
The data set can be described thus: EMSA; 50 mM Tris-HCl pH 8.0, 50 mM KCl, 30 °C 15 min; RNA refolded from 95 °C; 15% PAGE in Tris-borate-EDTA, ethidium bromide stain. Background: Mobility shift assays separate free from complexed probe on a gel.

A further data set concerns the target T2, bacteriophage λN peptide (bacteriophage lambda, UniProt P03045).
T2 chain: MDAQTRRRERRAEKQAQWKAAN
Described as above.

Data set [2] has as its target T1, HTLV-1 Rex peptide. Put plainly: EMSA; peptide in excess over RNA; ++; 50 mM Tris-HCl pH 8.0, 50 mM KCl, 30 °C 15 min; RNA refolded from 95 °C; 15% PAGE in Tris-borate-EDTA, ethidium bromide stain.

B1: HIV-1 Rev aptamer (structured_RNA)
RNA: GGCUGGACUCGUACUUCGGUACUGGAGAAACAGCC
As for B1, the binding result with HTLV-1 Rex peptide [1] and with bacteriophage λN peptide was “no binding” in each case.

B2: HTLV-1 Rex aptamer (structured_RNA)
RNA: UAGGCGACGGUACGCAAGUACUCUUGCGCCGGCCUA
Take B2: the binding result with bacteriophage λN peptide was “no binding”. In addition, the “apparent K (half saturation)” value in the data set with HTLV-1 Rex peptide [2] was ~300 nM.

(Values after article PMC4053799, “RNA Detection in Live Bacterial Cells Using Fluorescent Protein Complementation Triggered by Interaction of Two RNA Aptamers with Two RNA-Binding Peptides”.)
